# Reference: patent publication US8153134 (SCHERING, dated 2012)
# Residue numbers refer to the chain shown, from its start.
# T1: human MDL-1 (human, UniProt Q9NY25 1-188)
# T1 sequence: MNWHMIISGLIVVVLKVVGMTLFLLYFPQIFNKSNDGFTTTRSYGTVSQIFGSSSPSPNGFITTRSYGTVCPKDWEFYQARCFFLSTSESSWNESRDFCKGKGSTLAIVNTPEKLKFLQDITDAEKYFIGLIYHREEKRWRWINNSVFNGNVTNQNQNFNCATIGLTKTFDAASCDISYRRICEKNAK
# T2: hMDL-1-hIG (human, UniProt Q9NY25 28-188)
# T2 construct: Fusion of human MDL-1 with human Ig used in the BIAcore assay; MDL-1 is a type II membrane protein, so the Ig part may stand N-terminal; also called MDL-1-hIg ligand; not shown: human Ig part (hIG)
# T2 sequence: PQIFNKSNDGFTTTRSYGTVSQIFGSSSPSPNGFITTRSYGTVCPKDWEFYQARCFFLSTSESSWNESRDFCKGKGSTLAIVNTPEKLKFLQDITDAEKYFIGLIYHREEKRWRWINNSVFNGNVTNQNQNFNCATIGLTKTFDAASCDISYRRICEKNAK
# B1: DX241 (antibody, V domains shown)
# VH: DVKLVESGGGLVKLGGSLKLSCAASGFTFSSYYMSWVRQTPDKRLELVAAINSNGGTTYYPDTVKGRFTISRDNAKNTLYLQMSSLKPEDTALFYCVRDGEFGHYFDYWGQGTTLTVSS
# VL: SIVMTQTPKFLLVSAGDRVTITCKASQSVNNDVAWYQQKPGQSPKLLIYYASNRYTGVPDRFTGSGYGTDFTFTISTVQAEDLAVYFCQQDYNSPLTFGAGTKLELKR
# notes: Rodent anti-human MDL-1 monoclonal antibody from a hybridoma; VL of the kappa subclass; also called anti-MDL-1 antibody clone DX241; ATCC PTA-8374
# B2: DX230 (antibody, V domains shown)
# VH: EVQLVESGGDLVKPGGSLKLSCAASGFAFSNYDMSWVRQTPEKRLEWVAYISGGGGTTYYSDTVKGRFTISRDNAKNTLYLQMSSLKSEDTAMYYCVRHAVYYGKPYWGQGTTLTVSS
# VL: DIVLTQSPPSLAVSLGQRATVSCRASESVEHYGTGLMQWYQQKPGQPPRLLIYAASNVESGVPARFSGSGSGTDFSLNIHPVEEDDIAMYFCQQSRKVPWTFGGGTKLEIKR
# notes: Rodent anti-human MDL-1 monoclonal antibody from a hybridoma; VL of the kappa subclass; also called anti-MDL-1 antibody clone DX230; ATCC PTA-8373
# B3: DX297 (antibody, V domains shown)
# VH: B2 VH with A23T, K76R, M93I, V97A, A100P, V101I
# VL: B2 VL with P9A, V21I, G35S, S69G, S95N
# B4: DX246 (antibody, V domains shown)
# VH: QVTLKESGPGILKPSQTLSLTCSFSGFSLSTSGMNVGWIRQPSGKGLEWLAHIWWDDDKYYNPSLKSQLTISKDTSRNQVFLKITSVDTADTATYYCARRAFYGSNYDYYAMDYWGQGTSVTVSS
# VL: ENVLTQSPAIMSASPGEKVTMTCSVSSSVSYIHWYQQKSSTSPKLWIYDTSKLASGVPGRFSGSGSGNSYSLTISSMEAEDVATYYCFQGSGYPLTFGAGTKLELKR
# notes: Rodent anti-human MDL-1 monoclonal antibody from a hybridoma; VL of the kappa subclass; also called anti-MDL-1 antibody clone DX246; ATCC PTA-8376
# B5: DX244 (antibody, V domains shown)
# VH: QIQLVQSGPELKKPGETVKISCKASGYTFTIYAMNWVKQAPGKGLEWMGWINTDTGEPTYADDFKGRFAFSLETSASTAYLQINNLKNEDMATYFCARSSEVFYDYRFDYWGQGTALTVSS
# VL: DIQMTQSPSSLSASLGERVSLTCRASQDIGSSLNWLQQEPDGTIKRLIYATSNLDSGVPKRFSGSRSGSDYSLTISSLESEDFVHYYCLQYASSPFTFGSGTKLEIKR
# notes: Parental rodent anti-human MDL-1 monoclonal antibody (not the humanized form); VL of the kappa subclass; also called anti-MDL-1 antibody clone DX244; ATCC PTA-8375
# B6: DX240 (antibody, V domains shown)
# VH: QVQLLQSGAELVKPGASVKISCKASGYTFTDHAIHWVKQKPEQGLEWIGYISPGDGDIKYNEKFKDKATLTADKSSSIAYMQLNSLTSEDSAVYFCKNFDYDFIFDFWGQGTTLTVSS
# VL: DIVMSQSPSSLAVSAGETVTMSCKSSQSLLNSRARKNYLAWYQQKPGQSPKLLIYWASTRESGVPDRFTGSGSGTDFTLTISSVRAEDLAVYYCKQSYNLYTFGGGTKLEIKR
# notes: Rodent anti-human MDL-1 monoclonal antibody from a hybridoma; VL of the kappa subclass; also called anti-MDL-1 antibody clone DX240; ATCC PTA-9136
# B7: DX233 (antibody, V domains shown)
# VH: EVQMQQSGAELVKPGASVKLSCTASGFNIKDTYMHWVKQRPEQGLEWIGRIDPANGITKSDPKFQGKATITADTSSNTAYLQLNSLTSEDTAVYSCAPYSGNYVWFPYWGQGTLVTVSA
# VL: DIVMTQSHKFMSTSVGDRVNITCKASQDVGTAVAWYQRKPGKSPQVLIYWASTRHTGVPDRFTGSGSGTDFTLTISNVQSEDLADYFCQQYRSYPLTFGAGTKLELKR
# notes: Rodent anti-human MDL-1 monoclonal antibody from a hybridoma; VL of the kappa subclass; also called anti-MDL-1 antibody clone DX233
# B8: DX239 (antibody, V domains shown)
# VH: QVQLQQSGAELVRPGTSVKISCKASGYGFNNYWLGWVKQRPGHGLEWIGDIYPGSGNTYYNENFKGRATLTADKSSTTAYMQVSSLTSEDSAVYFCARGKESFAYWGQGTLVTVSA
# VL: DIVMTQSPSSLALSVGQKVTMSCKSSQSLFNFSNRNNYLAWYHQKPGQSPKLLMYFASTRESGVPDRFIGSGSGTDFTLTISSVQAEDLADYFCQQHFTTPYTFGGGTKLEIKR
# notes: Parental rodent anti-human MDL-1 monoclonal antibody (not the humanized form); VL of the kappa subclass; also called anti-MDL-1 antibody clone DX239; ATCC PTA-9135
# Target: T1, human MDL-1
# Assay: cell-based or functional assay
Binder,"secreted beta-hexosaminidase, OD (405-570), DT808 mouse mast cells, cross-link","secreted beta-hexosaminidase, OD (405-570), DT808 mouse mast cells, no cross-link"
B1,3.25 OD (405-570),2.66 OD (405-570)
B2,3.17 OD (405-570),3.32 OD (405-570)
B3,3.28 OD (405-570),3.17 OD (405-570)
B4,3.23 OD (405-570),3.39 OD (405-570)
B5,3.36 OD (405-570),3.46 OD (405-570)

# Target: T1, human MDL-1
# Assay: cell-based or functional assay
# Remark: another data set of the same source
Binder,"secreted beta-hexosaminidase, OD (405-570), DT808 mouse mast cells, cross-link","secreted beta-hexosaminidase, OD (405-570), DT808 mouse mast cells, no cross-link"
B6,3.25 OD (405-570),1.83 OD (405-570)
B7,3.21 OD (405-570),1.22 OD (405-570)
B8,3.14 OD (405-570),1 OD (405-570)

# Target: T1, human MDL-1
# Assay: cell-based or functional assay
# Remark: another data set of the same source
Binder,"increase in CD11b surface expression on human neutrophils, Mean Fluorescent Intensity as compared to isotype control treatment [MFI]","increase in CD66b surface expression on human neutrophils, Mean Fluorescent Intensity as compared to isotype control treatment [MFI]"
B6,336,97
B7,303,90.5
B8,377,107
B4,393,109
B5,349,110

# Target: T1, human MDL-1
# Assay: cell-based or functional assay
# Remark: another data set of the same source
row,Binder,"decrease of CD62L staining (MFI) of human neutrophils, isotype control treatment minus anti-hMDL-1 treatment [MFI]"
1,B6,114
2,B7,96.9
3,B8,142
4,B4,152
5,B5,140

# Target: T2, hMDL-1-hIG
# Assay: BIAcore SPR; mAb as capture reagent, hMDL-1-hIG as analyte
# Protocol: (§1) Determining the Equilibrium Dissociation Constant (K_d) for Humanized Anti-Human MDL-1 Antibodies Using BIAcore Technology BIAcore determinations are performed essentially as described at Example 4 of co-pending, commonly assigned U.S. patent application Ser. No. 11/511,635 (filed 29 Aug. 2006). Briefly, ligands (anti-MDL-1-hIg) are immobilized on a BIAcore CM5 sensor chip using standard amine-coupling procedure. Kinetic constants for the various interactions are determined using BIAevaluation software 3.1. The K_d is determined using the calculated dissociation and association rate constants.
# (§2) For antibodies DX233, DX239, and DX240, the antibodies were used as the capture reagent and the MDL-1-hIg ligand was used as the analyte. Affinity measurements for DX233, DX239, and DX240 were as follows.
Binder,koff [s⁻¹],kon [M⁻¹ s⁻¹]
B6,0.000325,8000
B7,0.000147,20000
B8,0.000336,10000

# Target: T2, hMDL-1-hIG
# Assay: BIAcore SPR; hMDL-1-hIG as capture antigen on the chip, mAb as analyte
# Protocol: as §1
Binder,koff [s⁻¹],kon [M⁻¹ s⁻¹]
B1,7.3e-05,354000
B2,0.0016,63000
B4,0.000817,644000
B5,6.8e-05,277000

# Target: T2, hMDL-1-hIG
# Assay: BIAcore SPR; mAb as capture reagent, hMDL-1-hIG as analyte; apparent Kd
# Protocol: as §1, §2
row,Binder,Kd [nM]
1,B6,43
2,B7,8.65
3,B8,37.9

# Target: T2, hMDL-1-hIG
# Assay: BIAcore SPR; hMDL-1-hIG as capture antigen on the chip, mAb as analyte; apparent Kd
# Protocol: as §1
row,Binder,Kd [nM]
1,B1,0.207
2,B2,25.2
3,B4,1.27
4,B5,0.247
